This is an account of results in IntAct's records for PubMed 25910212.

B1: EF-hand domain-containing protein 1 (Homo sapiens), Q5JVL4 (parent)
chain: MVSNPVHGLPFLPGTSFKDSTKTAFHRSQTLSYRNGYAIVRRPTVGIGGDRLQFNQLSQAELDELASKAPVLTYGQPKQAPPADFIPAHVAFDKKVLKFDAYFQEDVPMSTEEQYRIRQVNIYYYLEDDSMSVIEPVVENSGILQGKLIKRQRLAKNDRGDHYHWKDLNRGINITIYGKTFRVVDCDQFTQVFLESQGIELNPPEKMALDPYTELRKQPLRKYVTPSDFDQLKQFLTFDKQVLRFYAIWDDTDSMYGECRTYIIHYYLMDDTVEIREVHERNDGRDPFPLLMNRQRVPKVLVENAKNFPQCVLEISDQEVLEWYTAKDFIVGKSLTILGRTFFIYDCDPFTRRYYKEKFGITDLPRIDVSKREPPPVKQELPPYNGFGLVEDSAQNCFALIPKAPKKDVIKMLVNDNKVLRYLAVLESPIPEDKDRRFVFSYFLATDMISIFEPPVRNSGIIGGKYLGRTKVVKPYSTVDNPVYYGPSDFFIGAVIEVFGHRFIILDTDEYVLKYMESNAAQYSPEALASIQNHVRKREAPAPEAESKQTEKDPGVQELEALIDTIQKQLKDHSCKDNIREAFQIYDKEASGYVDRDMFFKICESLNVPVDDSLVKELIRMCSHGEGKINYYNFVRAFSN
partner: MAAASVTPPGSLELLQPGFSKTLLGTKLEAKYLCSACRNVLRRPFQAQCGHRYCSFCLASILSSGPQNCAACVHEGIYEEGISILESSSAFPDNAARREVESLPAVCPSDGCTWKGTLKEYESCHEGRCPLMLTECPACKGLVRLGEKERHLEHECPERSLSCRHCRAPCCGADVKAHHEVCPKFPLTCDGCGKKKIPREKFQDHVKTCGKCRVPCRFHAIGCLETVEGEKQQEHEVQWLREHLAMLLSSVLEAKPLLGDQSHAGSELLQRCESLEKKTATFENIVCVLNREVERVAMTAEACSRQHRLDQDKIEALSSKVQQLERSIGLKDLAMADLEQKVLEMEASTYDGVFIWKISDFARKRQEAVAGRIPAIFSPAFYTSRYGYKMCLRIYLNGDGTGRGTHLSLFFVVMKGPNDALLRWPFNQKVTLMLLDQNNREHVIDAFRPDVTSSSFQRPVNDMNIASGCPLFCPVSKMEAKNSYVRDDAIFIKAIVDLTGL
B2: Inhibin alpha chain (Homo sapiens), P05111 (parent)
chain: MVLHLLLFLLLTPQGGHSCQGLELARELVLAKVRALFLDALGPPAVTREGGDPGVRRLPRRHALGGFTHRGSEPEEEEDVSQAILFPATDASCEDKSAARGLAQEAEEGLFRYMFRPSQHTRSRQVTSAQLWFHTGLDRQGTAASNSSEPLLGLLALSPGGPVAVPMSLGHAPPHWAVLHLATSALSLLTHPVLVLLLRCPLCTCSARPEATPFLVAHTRTRPPSGGERARRSTPLMSWPWSPSALRLLQRPPEEPAAHANCHRVALNISFQELGWERWIVYPPSFIFHYCHGGCGLHIPPNLSLPVPGAPPTPAQPYSLLPGAQPCCAALPGTMRPLHVRTTSDGGYSFKYETVPNLLTQHCACI
partner: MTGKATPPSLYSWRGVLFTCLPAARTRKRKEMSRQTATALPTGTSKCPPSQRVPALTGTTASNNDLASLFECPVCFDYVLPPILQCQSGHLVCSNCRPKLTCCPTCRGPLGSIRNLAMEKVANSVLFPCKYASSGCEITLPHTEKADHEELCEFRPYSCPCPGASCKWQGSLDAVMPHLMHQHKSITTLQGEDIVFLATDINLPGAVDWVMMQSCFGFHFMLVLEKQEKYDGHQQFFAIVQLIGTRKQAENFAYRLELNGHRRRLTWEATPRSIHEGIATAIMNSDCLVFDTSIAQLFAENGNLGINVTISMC
B3: ATP synthase mitochondrial F1 complex assembly factor 2 (Homo sapiens), Q8N5M1 (parent)
chain: MWRSCLRLRDGGRRLLNRPAGGPSASMSPGPTIPSPARAYAPPTERKRFYQNVSITQGEGGFEINLDHRKLKTPQAKLFTVPSEALAIAVATEWDSQQDTIKYYTMHLTTLCNTSLDNPTQRNKDQLIRAAVKFLDTDTICYRVEEPETLVELQRNEWDPIIEWAEKRYGVEISSSTSIMGPSIPAKTREVLVSHLASYNTWALQGIEFVAAQLKSMVLTLGLIDLRLTVEQAVLLSRLEEEYQIQKWGNIEWAHDYELQELRARTAAGTLFIHLCSESTTVKHKLLKE
partner: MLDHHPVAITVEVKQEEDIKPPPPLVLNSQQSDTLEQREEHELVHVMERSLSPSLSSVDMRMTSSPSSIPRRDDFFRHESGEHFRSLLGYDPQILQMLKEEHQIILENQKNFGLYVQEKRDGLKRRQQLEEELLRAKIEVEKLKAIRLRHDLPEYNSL
B4: SH2 domain-containing protein 1A (Homo sapiens), O60880 (parent)
chain: MDAVAVYHGKISRETGEKLLLATGLDGSYLLRDSESVPGVYCLCVLYHGYIYTYRVSQTETGSWSAETAPGVHKRYFRKIKNLISAFQKPDQGIVIPLQYPVEKKSSARSTQGTTGIREDPDVCLKAP
B5: Iodotyrosine deiodinase 1 (Homo sapiens), Q6PHW0 (parent)
chain: MYFLTPILVAILCILVVWIFKNADRSMEKKKGEPRTRAEARPWVDEDLKDSSDLHQAEEDADEWQESEENVEHIPFSHNHYPEKEMVKRSQEFYELLNKRRSVRFISNEQVPMEVIDNVIRTAGTAPSGAHTEPWTFVVVKDPDVKHKIRKIIEEEEEINYMKRMGHRWVTDLKKLRTNWIKEYLDTAPILILIFKQVHGFAANGKKKVHYYNEISVSIACGILLAALQNAGLVTVTTTPLNCGPRLRVLLGRPAHEKLLMLLPVGYPSKEATVPDLKRKPLDQIMVTV
partner: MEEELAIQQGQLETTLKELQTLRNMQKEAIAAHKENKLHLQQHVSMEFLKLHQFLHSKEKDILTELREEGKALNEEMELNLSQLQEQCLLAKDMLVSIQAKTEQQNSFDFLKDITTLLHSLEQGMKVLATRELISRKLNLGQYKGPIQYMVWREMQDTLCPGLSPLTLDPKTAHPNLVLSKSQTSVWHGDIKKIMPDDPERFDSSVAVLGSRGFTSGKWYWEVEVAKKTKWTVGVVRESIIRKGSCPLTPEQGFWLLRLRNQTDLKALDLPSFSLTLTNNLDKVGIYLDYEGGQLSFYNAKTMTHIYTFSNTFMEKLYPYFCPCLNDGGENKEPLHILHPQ

The variants in one assay derive from B1. The note with it: with traf2_human TRAF2, Q12933.
With M448T, the “effect of a mutation on the interaction” value is on record as “with no effect”. Same read-out and setting: the value for T508R was “with no effect”; that for R159W was “with no effect”. Take P77T: the “effect of a mutation on the interaction” value is “disrupting interaction strength”. On the same count and under the same terms, with R221H the entry was “disrupting interaction strength”.

Variants of B2 are the subject of another assay. The note with it: with SIAH1, Q8IUQ4-2.
As to A182D, the “effect of a mutation on the interaction” value is “with no effect”. As for A257T, the “effect of a mutation on the interaction” value is “with no effect”. Take P43A: the “effect of a mutation on the interaction” value was “with no effect”.

Variants of B3 are the subject of another assay. The note with it: with FSBP.
As to W94R, the “effect of a mutation on the interaction” value is given as “disrupting interaction strength”.

In the next assay the parent is B4. The note with it: with TNK2, Q07912-2.
Chain of TNK2, Q07912-2 (Q07912 other isoform, or with tags, fused parts or gaps): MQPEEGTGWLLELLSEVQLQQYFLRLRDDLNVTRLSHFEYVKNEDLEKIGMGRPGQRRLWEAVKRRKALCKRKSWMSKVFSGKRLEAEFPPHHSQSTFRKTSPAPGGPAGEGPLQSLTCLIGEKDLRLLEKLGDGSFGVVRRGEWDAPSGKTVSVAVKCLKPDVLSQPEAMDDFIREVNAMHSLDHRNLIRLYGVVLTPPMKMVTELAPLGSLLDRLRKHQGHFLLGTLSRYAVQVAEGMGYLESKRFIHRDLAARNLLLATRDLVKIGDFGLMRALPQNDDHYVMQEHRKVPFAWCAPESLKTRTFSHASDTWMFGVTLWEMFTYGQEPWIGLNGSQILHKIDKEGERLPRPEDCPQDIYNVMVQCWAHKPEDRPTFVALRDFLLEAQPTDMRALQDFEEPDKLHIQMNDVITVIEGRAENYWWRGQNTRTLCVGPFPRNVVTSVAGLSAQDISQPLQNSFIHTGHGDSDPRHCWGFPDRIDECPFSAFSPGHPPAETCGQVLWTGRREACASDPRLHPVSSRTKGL
As for R32T, the “effect of a mutation on the interaction” value is “with no effect”. For P101L, the “effect of a mutation on the interaction” value is “with no effect”. For G93D, the “effect of a mutation on the interaction” value is “with no effect”.

The variants in the next assay derive from B5. Conditions: with TRIM69, Q86WT6-2.
Consider A220T, for which the “effect of a mutation on the interaction” value is “with no effect”.

On to I116T, for which the “effect of a mutation on the interaction” value is given as “with no effect”.
